According to paper PMC7810988, “Inositol pyrophosphates promote the interaction of SPX domains with the coiled-coil motif of PHR transcription factors to regulate plant phosphate homeostasis”:

Key:
[1] = molecular target: AtPHR1 MYB-CC Olig2 (Arabidopsis thaliana, UniProt Q94CL7 222-358, L317N;L327N;I341N); assay: GCI; 4 C, 300 mM NaCl; GCI at 4 C: AtPHR1 in 20 mM HEPES pH 7.5, 300 mM NaCl; OsPHR2 in 20 mM HEPES pH 7.9, 200 mM NaCl. EMSA: LI-COR Odyssey kit buffer without optional components, 50 nM oligo, 30 min at room temperature, 5% TBE gel in 0.5x TBE; details: protein: recombinant; tags: His6 N-terminal, TEV-cleaved; label: 5'-biotin on strand 1; blunt
[2] = molecular target: AtPHR1 MYB-CC Olig1 (Arabidopsis thaliana, UniProt Q94CL7 222-358, L319N;I333N;L337N); assay: EMSA; indistinguishable from wild type; GCI at 4 C: AtPHR1 in 20 mM HEPES pH 7.5, 300 mM NaCl; OsPHR2 in 20 mM HEPES pH 7.9, 200 mM NaCl. EMSA: LI-COR Odyssey kit buffer without optional components, 50 nM oligo, 30 min at room temperature, 5% TBE gel in 0.5x TBE; details: protein: recombinant; tags: His6 N-terminal, TEV-cleaved; label: 5'-IRD800 on both strands; blunt
Chain of AtPHR1 MYB-CC Olig1 (Q94CL7 222-358 L319N/I333N/L337N): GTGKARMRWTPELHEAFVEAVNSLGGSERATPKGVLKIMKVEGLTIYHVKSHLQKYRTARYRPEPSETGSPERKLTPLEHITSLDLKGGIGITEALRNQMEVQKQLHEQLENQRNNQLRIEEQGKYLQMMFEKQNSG

Chain of AtPHR1 MYB-CC Olig2 (Q94CL7 222-358 L317N/L327N/I341N): as the sequence (Q94CL7 222-358 L319N/I333N/L337N) above, with L96N, N98L, L106N, N112I, N116L, I120N counted along it

B1: pAtSPX1 biotin (dsDNA)
DNA 1: CAGAGAAAAAAGGATATTCTAATTAGAAACCTTAAGAATATTCTTTTTAATCCC
DNA 2: GGGATTAAAAAGAATATTCTTAAGGTTTCTAATTAGAATATCCTTTTTTCTCTG
binding signal [1]: ~20 fold reduced affinity vs wild type

B2: IRD800-pAtSPX1 (dsDNA)
DNA 1: B1 DNA 1
DNA 2: B1 DNA 2
binding result [2]: binds
